System: soluble CD28-Fc
Test: binding of soluble CD28-Fc by CD80 functionalized leucine zipper T cells
Conditions: FIG. 21B
From the text: CD80 (B7-1) molecule functionalized to present blocked capture leucine zipper, permitting magnetic sorting with FLAG-RR12EE345L leucine zipper. T cells were transduced with vectors encoding (a) FLAG-RR12EE345L iCaspase9 CD19-myc-CAR and (b) RR12EE345L linker EE12RR345L CD80 CD20-streptag-CAR. Next, cells were magnetically sorted with anti-FLAG magnetic beads.

B1: RR12EE345L linker EE12RR345L CD80: CD80 (B7-1) functionalized to present blocked capture leucine zipper, SEQ ID NO: 142 (protein)
chain: METDTLLLWVLLLWVPGSTGLEIRAAFLRQRNTALRTEVAELEQEVQRLENEVSQYETRYGPLGGGKGGGGSGGGGSGGGGSGGGSLEIEAAFLERENTALETRVAELRQRVQRLRNRVSQYRTRYGPLGGGKEFTGSTSGSGKPGSGEGSTKGVDEQLSKSVKDKVLLPCRYNSPHEDESEDRIYWQKHDKVVLSVIAGKLKVWPEYKNRTLYDNTTYSLIILGLVLSDRGTYSCVVQKKERGTYEVKHLALVKLSIKADFSTPNITESGNPSADTKRITCFASGGFPKPRFSWLENGRELPGINTTISQDPESELYTISSQLDFNTTRNHTIKCLIKYGDAHVSEDFTWEKPPEDPPDSKNTLVLFGAGFGAVITVVVIVVIIKCFCKHRSCFRRNEASRETNNSLTFGPEEALAEQTVFL
binding to soluble CD28-Fc: bound to soluble CD28-Fc

Source: patent US20210179686A1, “CELL SORTING SYSTEMS AND METHODS OF USE” (MEMORIAL SLOAN-KETTERING CANCER CENTER, priority 2018, published 2021)
